Biological target: endogenous Translokin of mouse NIH-3T3 cells (mouse) (UniProt Q8CEE0)
Assay: cell-based or functional assay

Chain of UniProt Q8CEE0 (Q8CEE0 whole entry): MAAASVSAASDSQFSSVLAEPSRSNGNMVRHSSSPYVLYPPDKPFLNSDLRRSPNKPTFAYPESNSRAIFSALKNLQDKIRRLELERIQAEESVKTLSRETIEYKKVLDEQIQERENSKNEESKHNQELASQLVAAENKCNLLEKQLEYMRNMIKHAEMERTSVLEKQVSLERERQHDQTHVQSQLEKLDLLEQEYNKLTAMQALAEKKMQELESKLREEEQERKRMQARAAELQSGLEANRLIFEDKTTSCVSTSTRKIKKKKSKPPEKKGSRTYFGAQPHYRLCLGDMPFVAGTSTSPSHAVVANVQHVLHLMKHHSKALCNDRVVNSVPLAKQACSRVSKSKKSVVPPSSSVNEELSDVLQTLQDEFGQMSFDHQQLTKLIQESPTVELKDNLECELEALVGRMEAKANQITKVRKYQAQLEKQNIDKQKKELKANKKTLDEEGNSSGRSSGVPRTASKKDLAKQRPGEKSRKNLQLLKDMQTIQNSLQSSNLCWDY

HA-tagged FGF-2 (18 kDa) (ligand)
FGF-2 nuclear accumulation in NIH-3T3 cells after Translokin siRNA: 80%
